US20120100556A1, “Functional Expression of Higher Plant Nitrate Transporters in Pichia Pastoris” (priority 2007, published 2012)

How the values were obtained:
[1] = system: Arabidopsis Nrt1.1 transformants; assay: Functional pre-screening chlorate assay (growth on minimal plate); type: cell-based, Pichia pastoris; details: very small concentrations of chlorate, relative to Pichia angusta Nrt transformants
Method: 5 μL of overnight YPD transformant cultures were spotted onto a minimal plate containing yeast nitrogen base, 10 mM proline, 2% glucose and 3-20 mM chlorate. These were incubated overnight at 30° C. The amount of growth was observed the next morning. […] This assay was repeated with various Nrt genes.

[2] = system: functional transformants; assay: Chlorate assay, functional transformants with pGAP promoter; type: cell-based, Pichia pastoris; details: as low as
Method: A particularly effective way to screen for functional transformants is the use of a chlorate assay. It is known that Pichia pastoris cells with co-expressed Arabidopsis nitrate reductase and a yeast nitrate transporter driven under methanol-inducible AOX promoter are sensitive to 150 mM chlorate on solid medium. See, Unkles, et al., (2004) J. Biol. Chem., 279:28182-86. However, when a constitutive promoter rather than the commonly-used pAOX is used, the sensitivity of the functional transformants to chlorate increases substantially, and therefore the chlorate assay is much more sensitive. For example, when the preferred pGAP promoter is used, functional transformants are sensitive to chlorate concentrations much below 150 mM, such as by concentrations of as low as about 0.5 mM. Of course, the sensitivity level will vary depending on the rate of uptake of the particular Nrt integrated into the Pichia pastoris.

[3] = system: Pichia angusta Nrt transformants; assay: Functional pre-screening chlorate assay (growth on minimal plate); type: cell-based, Pichia pastoris; details: 0.5 mM chlorate, overnight at 30° C.
Method: […] These were incubated overnight at 30° C. The amount of growth was observed the next morning. […] This assay was repeated with various Nrt genes.

[4] = system: Pichia pastoris cells with co-expressed Arabidopsis nitrate reductase and a yeast nitrate transporter; details: 150 mM chlorate on solid medium; methanol-inducible AOX promoter; cited from earlier work
[5] = system: P. pastoris GS115-YNR1 transformants; assay: Nitrate transporter (NT) activity of barley two-component HATS transformants, nitrite assay; type: cell-based, Pichia pastoris; details: 1 mM NaNO3, 2 hours at 30° C., pH 6.5; compared to negative controls GS115 wt and GS115-YNR1
Description: To test if P. pastoris was capable to identify a plant two-component HATS system, the following constructs containing HvNrt2.1 (SEQ ID NO: 5) or HvNar2.3 (SEQ ID NO: 6) were made and transformed into GS115-YNR1 line at AOX locus individually: pPIC3.5-pGAP-HvNrt2.1 or pPIC3.5-pGAP-HvNar2.3. To obtain transformants carrying HvNar2.3 and HvNrt2.1, GS115 wt was transformed with pPIC3.5-pGAPHvNar2.3-pGAPYNR at His 4 locus, then re-transformed with pPIC3.5-pGAP-HvNrt2.1 at AOX locus after the line was confirmed carrying both YNR1 and HvNar2.3 genes by PCR. The transformants were cultured in rich media (YPD) at 30° C. for overnight. Yeast cells were collected and washed with water twice then re-suspended in […], pH 6.5 and 1% glucose containing 1 mM NaNO3. After 2 hours incubation at 30° C., the supernatant was collected for nitrite assay with 1% Sulfanilamide, 0.01% N-(1-Naphthyl)ethylene-diamine dihydrochloride and 15% (v/v) H3PO4.

[6] = system: Pichia pastoris cell expressing the indicated nitrate transporter gene; assay: In vivo nitrate uptake assay (nitrite in medium by Griess reagent, Michaelis-Menten fit); type: cell-based; details: transporter co-expressed with YNR1 in Pichia pastoris; 20 mM MOPS pH 6.5, 1% glucose; nitrate 0-30 mM
Description: Pichia pastoris is a non-nitrate assimilating yeast. Because of this, any nitrate taken in via the Nrt is converted to nitrite by the co-expressed Nr and diffused or transported to the medium. This property permits the transformed Pichia pastoris to be used as an in vivo nitrate uptake assay, as the amount of nitrate taken into the cells is directly proportional to the nitrite later present in the growth medium. Nitrite may be quantitatively detected using Griess reagent or any other method known in the art. By way of the assay, various kinetic parameters of an Nrt may be quantified, such as Km and Vmax.
The assay is generally performed by incubating transformed Pichia pastoris on a medium containing nitrate for a set amount of time and assessing the amount of nitrite diffused to the medium after that set amount of time. The medium is preferably buffered. Most preferably, the medium has about 20 mM MOPS, pH 6.5, buffer and about 1% glucose, as this buffered medium allows the detection of linear uptake for up to several hours. The table below provides kinetic data for several Nrt proteins ascertained using the in vivo uptake assay herein described:
Pichia pastoris transformants were prepared in accordance with example 1 above and grown in YPD medium at 30° C. for 1 day. Cell pellets were washed twice with water then resuspended with a proper amount of uptake medium including nitrate. 24 different nitrate concentrations were tested, ranging from 0-30 mM. Optimal results were obtained with a buffered medium such as 20 mM MOPS, pH 6.5, 1% glucose, and the varying concentrations of nitrate. The aliquots were transferred into a 96-well plate; supernatants were mixed with Greiss reagent and monitored at 545 nm using a plate reader produced by Molecular Devices.
The raw data were fitted into proper kinetic equations, such as the Michaelis-Menton equation, using a program such as KaleidaGraph, available from Synergy Software, Reading Pa., USA. This in vivo uptake assay permits the kinetics of various nitrate transporters to be ascertained, such as those listed in Table 1 above.

Molecule | NT activity [5] | Km [6] | Vmax, μM of nitrate taken up in one minute by 50 μl Pichia pastoris cell [6] | also measured
[O-][Cl+2]([O-])O [chlorate] | – | – | – | sensitivity of transformants to chlorate [1]: less sensitive; chlorate concentration to which functional transformants are sensitive [2]: about 0.5 mM; growth of transformants in chlorate [3]: inhibited; sensitivity to chlorate [4]: sensitive
HvNrt2.1: barley carrier-type protein Nrt2 of two-component HATS, SEQ ID NO: 5 | did not have NT activity | – | – | –
AtNrt1.1: higher plant nitrate transporter protein, GenBank accession L10357 (protein, UniProt Q05085 1-590, looked up) Protein NRT1/ PTR FAMILY 6.3: MSLPETKSDDILLDAWDFQGRPADRSKTGGWASAAMILCIEAVERLTTLGIGVNLVTYLTGTMHLGNATAANTVTNFLGTSFMLCLLGGFIADTFLGRYLTIAIFAAIQATGVSILTLSTIIPGLRPPRCNPTTSSHCEQASGIQLTVLYLALYLTALGTGGVKASVSGFGSDQFDETEPKERSKMTYFFNRFFFCINVGSLLAVTVLVYVQDDVGRKWGYGICAFAIVLALSVFLAGTNRYRFKKLIGSPMTQVAAVIVAAWRNRKLELPADPSYLYDVDDIIAAEGSMKGKQKLPHTEQFRSLDKAAIRDQEAGVTSNVFNKWTLSTLTDVEEVKQIVRMLPIWATCILFWTVHAQLTTLSVAQSETLDRSIGSFEIPPASMAVFYVGGLLLTTAVYDRVAIRLCKKLFNYPHGLRPLQRIGLGLFFGSMAMAVAALVELKRLRTAHAHGPTVKTLPLGFYLLIPQYLIVGIGEALIYTGQLDFFLRECPKGMKGMSTGLLLSTLALGFFFSSVLVTIVEKFTGKAHPWIADDLNKGRLYNFYWLVAVLVALNFLIFLVFSKWYVYKEKRLAEVGIELDDEPSIPMGH | – | 360 µM | 8.0 μM/m/50 μl cell | –
HvNar2.3: barley associate protein Nar2 of two-component HATS, SEQ ID NO: 6 (protein, Hordeum vulgare) MARQGMVTALLLLVLAAGCCASAGAVAYLSKLPVTLDVTASPTPGQVLHAGEDVITVTWALNASQPAGKDADYKNVKVSLCYAPVSQKEREWRKTHDDLKKDKTCQFKITQQAYPGAGKVEYRVALDIPTATYYVRAYALDASGTQVAYGQTAPTAAFNVVSITGVTTSIKVAAGVFSAFSVASLAFFFFIEKRKKNN | did not have NT activity | – | – | –
AtNrt1.4: higher plant nitrate transporter protein, GenBank accession AC003105 (protein, UniProt Q9SZY4 1-577, looked up) Protein NRT1/ PTR FAMILY 6.2: MESKGSWTVADAVDYKGRPADKSKTGGWITAALILGIEVVERLSTMGIAVNLVTYLMETMHLPSSTSANIVTDFMGTSFLLCLLGGFLADSFLGRFKTIGIFSTIQALGTGALAVATKLPELRPPTCHHGEACIPATAFQMTILYVSLYLIALGTGGLKSSISGFGSDQFDDKDPKEKAHMAFFFNRFFFFISMGTLLAVTVLVYMQDEVGRSWAYGICTVSMAIAIVIFLCGTKRYRYKKSQGSPVVQIFQVIAAAFRKRKMELPQSIVYLYEDNPEGIRIEHTDQFHLLDKAAIVAEGDFEQTLDGVAIPNPWKLSSVTKVEEVKMMVRLLPIWATTIIFWTTYAQMITFSVEQASTMRRNIGSFKIPAGSLTVFFVAAILITLAVYDRAIMPFWKKWKGKPGFSSLQRIAIGLVLSTAGMAAAALVEQKRLSVAKSSSQKTLPISVFLLVPQFFLVGAGEAFIYTGQLDFFITQSPKGMKTMSTGLFLTTLSLGFFVSSFLVSIVKRVTSTSTDVGWLADNINHGRLDYFYWLLVILSGINFVVYIICALWFKPTKGKDSVEKENGKGFSVEDC | – | 610 µM | 4.0 μM/m/50 μl cell | –
AtNrt1.3: higher plant nitrate transporter protein, GenBank accession AB019232 (protein, UniProt Q9LVE0 1-590, looked up) Protein NRT1/ PTR FAMILY 6.4: MVHVSSSHGAKDGSEEAYDYRGNPPDKSKTGGWLGAGLILGSELSERICVMGISMNLVTYLVGDLHISSAKSATIVTNFMGTLNLLGLLGGFLADAKLGRYKMVAISASVTALGVLLLTVATTISSMRPPICDDFRRLHHQCIEANGHQLALLYVALYTIALGGGGIKSNVSGFGSDQFDTSDPKEEKQMIFFFNRFYFSISVGSLFAVIALVYVQDNVGRGWGYGISAATMVVAAIVLLCGTKRYRFKKPKGSPFTTIWRVGFLAWKKRKESYPAHPSLLNGYDNTTVPHTEMLKCLDKAAISKNESSPSSKDFEEKDPWIVSTVTQVEEVKLVMKLVPIWATNILFWTIYSQMTTFTVEQATFMDRKLGSFTVPAGSYSAFLILTILLFTSLNERVFVPLTRRLTKKPQGITSLQRIGVGLVFSMAAMAVAAVIENARREAAVNNDKKISAFWLVPQYFLVGAGEAFAYVGQLEFFIREAPERMKSMSTGLFLSTISMGFFVSSLLVSLVDRVTDKSWLRSNLNKARLNYFYWLLVVLGALNFLIFIVFAMKHQYKADVITVVVTDDDSVEKEVTKKESSEFELKDIP | – | 7400 µM | 14.4 μM/m/50 μl cell | –
